B1: BolA-like protein 3 (Homo sapiens), Q53S33 (parent)
chain: MAAWSPAAAAPLLRGIRGLPLHHRMFATQTEGELRVTQILKEKFPRATAIKVTDISGGCGAMYEIKIESEEFKEKRTVQQHQMVNQALKEEIKEMHGLRIFTSVPKR
partner: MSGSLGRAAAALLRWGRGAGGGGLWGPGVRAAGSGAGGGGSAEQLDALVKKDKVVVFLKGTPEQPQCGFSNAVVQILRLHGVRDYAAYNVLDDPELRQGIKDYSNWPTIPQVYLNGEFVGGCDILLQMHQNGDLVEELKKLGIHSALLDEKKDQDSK

Variants of: B1
Conditions: with glrx5_human GLRX5, Q86SX6

| Variant | effect of a mutation on the interaction |
| --- | --- |
| MAAWSPAAAAPLLRGIRGLPLHHRMFATQTEGELRVTQILKEKFPRATAIKVTDISGGYGAMYEIKIESEEFKEKRTVQQHQMVNQALKEEIKEMHGLRIFTSVPKR [C59Y] | with no effect |

From IntAct's records for PubMed 34063696
